Assay results from patent publication US20240317847A1 (Bayer, published 2024).
Positions count from the first letter of the chain named. Names may count otherwise.

Key:
[1] = target: T1, murine IL-11 (Invigate, e.g., lot #C210819-09) (mouse, UniProt P47873 22-199); test: ELISA, receptor-Fc titrated on biotinylated IL-11 captured on streptavidin plate; species of IL-11 not said
T1 construct: Bought protein; biotinylated where captured on streptavidin plates; also called mIL-11; mIL11
T1 sequence: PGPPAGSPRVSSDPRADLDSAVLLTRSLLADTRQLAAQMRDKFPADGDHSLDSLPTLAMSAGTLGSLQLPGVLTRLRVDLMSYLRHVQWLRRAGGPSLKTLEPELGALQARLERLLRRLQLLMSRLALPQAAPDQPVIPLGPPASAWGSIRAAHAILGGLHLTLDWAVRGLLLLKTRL

[2] = target: T2, human IL-11 (Invigate, e.g., lot #C121021-19) (human, UniProt P20809 22-199); test: as above
T2 construct: Bought protein; also called hIL-11; hIL11
T2 sequence: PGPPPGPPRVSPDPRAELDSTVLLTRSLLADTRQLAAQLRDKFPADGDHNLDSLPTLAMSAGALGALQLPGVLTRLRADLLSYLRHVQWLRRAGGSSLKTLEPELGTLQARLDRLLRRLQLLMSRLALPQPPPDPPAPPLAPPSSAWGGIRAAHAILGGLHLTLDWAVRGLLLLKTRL

[3] = target: T1, murine IL-11 (Invigate, e.g., lot …); test: SPR, Biacore 8K; antibody captured on anti-human IgG Fc chip
Description: (§1) Antibody binding affinity to hIL-11 (Invigate, Germany, e.g., lot #C121021-19) and mIL-11 (Invigate, Germany, e.g., lot #C210819-09) was detected using Biacore 8K. Each antibody was captured on an anti-human IgG Fc antibody immobilized CM5 sensor chip (GE). hIL-11 and mIL-11 at different concentrations (0, 5, 15.82 and 50 nM) in 1×HBS-EP+ (pH 7.4) (GE healthcare) were injected over the sensor chip at a flow rate of 30 μL/min for an association phase of 120 s, followed by 200 s dissociation phase. The chip was then regenerated by 10 mM Glycine, pH 1.5 after each binding cycle.

[4] = target: T2, human IL-11 (Invigate, e.g., lot …); test: SPR, Biacore 8K; antibody captured on anti-human IgG Fc chip, IL-11 analyte 0-50 nM, 1:1 fit
Description: as §1
The sensorgrams of blank surface and buffer channel were subtracted from the test sensorgrams. The experimental data was fitted by 1:1 model using Langmiur analysis. Molecular weight of 19.3 kDa was used to calculate the molar concentration of human and mouse IL-11.

murine IL-11 [5] = target: T3, murine IL-11 (mouse, UniProt P47873 22-199); test: Tri-complex ELISA, mIL-11 + mIL-11Ra-Fc + mgp130-Fc, inhibition of complex formation
T3 construct: Invigate recombinant protein; biotinylated when immobilized in the Di-complex ELISA; also called mIL11; mIL-11
T3 sequence: T1 sequence
Description: (§2) In the Tri-complex ELISA format IL-11 antibodies are tested for their ability to inhibit the formation of a complex consisting of murine or human gp130-Fc fusion protein, with murine or human IL-11, and a murine IL11RA-Fc fusion protein. The assay format was adapted according to FIG. 18 (a, b), depending on whether murine or human IL-11 IgG antibodies were tested.
(§3) Bispecific antibodies were subjected to the experimental assay procedure described in Example 19 and IC50 [M], respectively efficacy (%) were calculated accordingly.

human IL-11 [6] = target: T4, human IL-11 (human, UniProt P20809 22-199); test: Di-complex ELISA, canine IL11RA-hFc binding to immobilized hIL-11, competition
T4 construct: Invigate recombinant protein; biotinylated when immobilized in the Di-complex ELISA; also called hIL11; hIL-11
T4 sequence: T2 sequence
Description: (§4) In the Di-complex ELISA format anti IL-11 antibodies are tested for the ability to interfere with the formation of complexes consisting of immobilized murine IL-11 (Invigate, e.g., lot #C210819-09) or human IL-11 (Invigate, e.g., lot #C121021-19), and murine IL11RA-Fc fusion proteins or canine IL11RA-human-Fc fusion protein (FIG. 17a, b).
(§5) Bispecific antibodies were subjected to the experimental assay procedure described in Example 18 and IC50 [M], respectively efficacy (%) were calculated accordingly.

murine IL-11 [7] = target: T3, murine IL-11; test: Di-complex ELISA, canine IL11RA-hFc binding to immobilized mIL-11, competition
Description: as §4, §5

rat IL-11 = target: T5, rat IL-11 (rat, UniProt Q99MF5 22-199); test: SPR (Biacore), 25 C, antibody captured via anti-Fc, IL-11 as analyte
T5 construct: Invigate recombinant protein; also called rIL11
T5 sequence: T1 sequence with S50N, L84F, G94A, V137A, I138V
Description: (§6) To assess the binding kinetics and affinity of anti-IL-11 bispecific antibodies as well as their species cross-reactivity profile, binding assays were conducted using surface plasmon resonance (SPR). […] Antibodies were captured either via anti-human Fc IgGs (“Human antibody capture kit”, Order No. BR100839, Cytiva) or via anti-mouse Fc IgGs (“Mouse antibody capture kit, Order No. BR100383, Cytiva) covalently amine coupled to a Series S CM5 sensor chip (Cytiva) depending on the isotype. The amine coupling was carried out according to the manufacturer's instructions using 1-ethyl-3-(3-dimethylaminopropyl) carbodiimide hydrochloride (EDC), N-hydroxysuccinimide (NHS) and ethanolamine HCl, pH 8.5 (“Amine Coupling Kit” BR-1000-50, Cytiva.). Human, mouse, cynomolgus or rat IL-11 was used as analyte at several dilutions within the concentration range from 0.05-200 nM. For binding assays with only one concentration 200 nM IL-11 was used. The sensor surface was regenerated with glycine pH 1.7 after each antigen injection. Obtained sensorgrams were double referenced (subtraction of reference flow cell signal and buffer injection) and were fitted to a 1:1 Langmuir binding model to derive kinetic data using the Biacore T200 Evaluation software or the Biacore Insight software.
(§7) If no value is reported, there was either no binding or very low binding and multiphasic binding behavior.

murine IL-11 [8] = target: T3, murine IL-11; test: as above
Description: as §6, §7

cynomolgus IL-11 = target: T6, cynomolgus IL-11 (cynomolgus, UniProt P20808 22-199); test: as above
T6 construct: Invigate recombinant protein; also called cIL11; Macaca IL-11
T6 sequence: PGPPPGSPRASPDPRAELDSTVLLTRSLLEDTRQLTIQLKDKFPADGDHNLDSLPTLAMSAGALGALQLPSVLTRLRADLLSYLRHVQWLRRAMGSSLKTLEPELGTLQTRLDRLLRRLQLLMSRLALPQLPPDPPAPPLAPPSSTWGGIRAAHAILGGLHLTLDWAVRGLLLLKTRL
Description: as §6, §7

human IL-11 [9] = target: T4, human IL-11; test: as above
Description: as §6, §7

murine IL-11 [10] = target: T3, murine IL-11; test: cell-based or functional assay
human IL-11 [11] = target: T4, human IL-11; test: cell-based or functional assay
human IL-11 [12] = target: T4, human IL-11; test: Tri-complex ELISA, hIL-11 + mIL-11Ra-Fc + hgp130-Fc, inhibition of complex formation
Description: as §2, §3

human IL2Ra = target: T7, human IL2Ra (human, UniProt P01589 22-240, limits assumed); test: ELISA on coated IL2Ra, signal ratio to isotype control at 1E-07 M antibody
T7 construct: coated on the ELISA plate; also called IL-2 receptor alpha
T7 sequence (looked up): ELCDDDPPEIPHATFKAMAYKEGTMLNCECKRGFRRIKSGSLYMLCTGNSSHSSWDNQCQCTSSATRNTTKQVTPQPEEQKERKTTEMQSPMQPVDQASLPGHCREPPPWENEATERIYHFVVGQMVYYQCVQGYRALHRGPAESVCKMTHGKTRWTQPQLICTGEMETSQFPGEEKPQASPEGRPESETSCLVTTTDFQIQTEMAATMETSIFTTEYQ
Description: IL2RA (Peprotech, Germany, #200-02RC) was coated at 1 or 0 μg/ml (buffer only control) in 30 μl coating buffer (Candor, #113500) per well on a 384 well microtiter plate (Maxisorb, Nunc, #460518) over night at 4-8° C. After two washes with 50 μl/well washing buffer (PBS+0.05% Tween, pH 7.4), the plates were incubated for two hours at room temperature with 50 μl/well SmartBlock (Candor, #113500). After blocking, the plates were washed three times with washing buffer. Then, a dilution series of the respective antibody (1E-7 [M] down to 2E-13 [M]) in PBS+0.05% Tween, 10% SmartBlock were added in 30 μl to the microtiter plate and incubated for 90 min at room temperature. After three additional washes, 30 μl anti mouse IgG HRP-conjugated antibody (Biotechne, HAF007), diluted 1:1000 in PBS+0.05% Tween (pH 7.4), were added per well and incubated for one hour. After three additional washes, a mixture of Amplex red (Invitrogen, #12222, 10 mM stock solution in DMSO) 1:1000 diluted in PBS and H2O2 (30%, Merck, #107209)) diluted 1:10000 in PBS were added as substrate with 30 μl per well and incubated for 20 min in the dark. Relative fluorescence was measured with a microtiter plate reader at 535/590 nm.
Bispecific antibodies were subjected to the experimental assay procedure described in Example 20. Ratios of the signals generated at an antibody concentration of 1E-07 [M] by the respective bispecific antibody versus those of an isotype control antibody were calculated and are shown in Table E29. The bispecific antibodies show no binding to IL-2 Ra.

B1: canine IL11RA-human-Fc fusion protein (Sino Biological, #70078-D02H) (Fc fusion)
chain: SPCPQAWGPPGVQYGQPGRSMTLCCPGVTAGAPVSWFRDGETRLLQGPDSGLGHELVLAQADSTDEGTYICRTLDGALGGIVTLQLGYPPARPVVSCQAADYENFSCTWSPSQVSGLPTRYLTSYRKKTVPGADGQRMSPSTGPWPCPQDPPGAARCVVHGAEFWSQYRINVTEVNPLGTSTRLLDVSLQSILRPDPPQGLRVESVPGYPRRLRASWTYPASWPRQPHFLLRFRLQYRPAQHPAWSTVEPAGLEEVITDAVAGLPHAVRVSARDFLDAGTWSAWSPEAWGTPSTGSLPKEIPAGGQPRKQLEEEPQADSPTPPRPSLLPDPRPLDQRDPLEQIAVLA
notes: Used in the Di-complex ELISA when murine IgGs were tested; also called canine IL11RA-Fc; Canine IL-11Ra fused to human Fc; not shown: human Fc (and any linker) of the bought fusion protein, Sino Biological #70078-D02H
Which EC50 [1] does the source give for B1 here?
The EC50 was roughly 2 nM.

And the EC50 [2]?
The EC50 was roughly 2 nM.

B2: TPP-31280 (antibody, human IgG4, V domains shown)
VH: EVQLLESGGGLVQPGGSLRLSCAASGFTFSHYDMNWLRQAPGKGLEWVGVISYDGSNKFYADFVKGRFTISRDNSKNTLYLQMNSLRAEDTAVYYCARTPGSHFDYWGQGTLVTVSS
VL: QSVLTQPPSASGTPGQRVTISCSGSSSNIGNNAVNWYQQLPGTAPKLLIYRDDLLPSGVPDRFSGSKSGTSASLAISGLRSEDEADYYCSAWDDSLNGVVFGGGTKLTVL
notes: consecutive numbering; also called VL-Y51R
What does the source list for B2?
binding result [3]: no binding (tested: 50 nM (highest IL-11 concentration)); Kd [4]: 600 nM

B3: TPP-26195 (bispecific antibody, IgG1)
chain 1: EVQLLESGGGLVQPGGSLRLSCAASGFTFSSYGMHWVRQAPGKGLEWVSVISYDGSYKYYADSVKGRFTISRDNSKNTLYLQMNSLRAEDTAVYYCAAGVPDYWGQGTLVTVSSGGGGSGGGGSGGGGSQSVLTQPPSASGTPGQRVTISCTGSSSNIGAGYDVHWYQQLPGTAPKLLIYSNNERPSGVPDRFSGSKSGTSASLAISGLRSEDEADYYCAAWDDSLNGPVFGGGTKLTVLGGGGSGGGGSGGGGSGVECPPCPAPPVAGPSVFIFPPKPKDVLTITLTPKVTCVVVDISKDDPEVQFSWFVDDVEVHTAQTQPREEQFNSTFRSVSELPIMHQDWLNGKEFKCRVNSAAFPAPIEKTISKTKGRPKAPQVYTIPPPKEQMAKDKVSLWCMITDFFPEDITVEWQWNGQPAENYKNTQPIMDTDGSYFVYSKLNVQKSNWEAGNTFTCSVLHEGLHNHHTEKSLSHSPGK
chain 2: EVQLLESGGGLVQPGGSLRLSCAASGFTFSHYDMNWLRQAPGKGLEWVGVISYDGSNKFYADFVKGRFTISRDNSKNTLYLQMNSLRAEDTAVYYCARTPGSHFDYWGQGTLVTVSSGGGGSGGGGSGGGGSQSVLTQPPSASGTPGQRVTISCSGSSSNIGNNAVNWYQQLPGTAPKLLIYYDDLLPSGVPDRFSGSKSGTSASLAISGLRSEDEADYYCSAWDDSLNGVVFGGGTKLTVLGGGGSGGGGSGGGGSGVECPPCPAPPVAGPSVFIFPPKPKDVLTITLTPKVTCVVVDISKDDPEVQFSWFVDDVEVHTAQTQPREEQFNSTFRSVSELPIMHQDWLNGKEFKCRVNSAAFPAPIEKTISKTKGRPKAPQVYTIPPPKEQMAKDKVSLSCAITDFFPEDITVEWQWNGQPAENYKNTQPIMDTDGSYFVVSKLNVQKSNWEAGNTFTCSVLHEGLHNHHTEKSLSHSPGK
notes: scFv-kih-mIgG1
For B3, which “Efficacy (%)” value (murine IL-11 [5]) is on record?
Its value is 98%.

What about the IC50 (murine IL-11 [5]) of the same binder?
Its IC50 is 0.258 nM.

What about the IC50 (human IL-11 [6]) of the same binder?
Its IC50 is 6.3 nM.

What about the IC50 (murine IL-11 [7]) of the same binder?
The IC50 was 4.1 nM.

And the Kd (rat IL-11)?
Its Kd is 0.045 nM.

What about the Kd (murine IL-11 [8]) of the same binder?
Its Kd is 0.046 nM.

And the Kd (cynomolgus IL-11)?
The Kd was 0.074 nM.

And the Kd (human IL-11 [9])?
Its Kd is 0.083 nM.

And the “Efficacy (%), Stat3 reporter gene assay” value (murine IL-11 [10])?
The value was 96.9%.

And the “IC50, Stat3 reporter gene assay” value (murine IL-11 [10])?
The value was 1.8 nM.

What about the “Efficacy (%), Stat3 reporter gene assay” value (human IL-11 [11]) of the same binder?
Its value is 88.5%.

And the “IC50, Stat3 reporter gene assay” value (human IL-11 [11])?
Its value is 0.65 nM.

What about the “Efficacy (%)” value (human IL-11 [12]) of the same binder?
Its value is 98%.

And the IC50 (human IL-11 [12])?
Its IC50 is 1.28 nM.

What about the “Ratio IL-2Ra Binding Signal Antibody/Isotype Control” value (human IL2Ra) of the same binder?
Its value is 146 ratio.
